Experimental data taken from the nanobody polyreactivity screen of Harvey et al. (2022).

Assay: yeast display, Sf9 membrane polyspecificity reagent, FACS + sequencing; frameworks hold sequencing errors
Method in brief: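 In a synthetic yeast display library (Saccharomyces cerevisiae BJ5465), nanobody expression was induced with galactose for 36–48 hours. FACS gates were set low and high (top ~1%) using anti-HA fluorescence for expression and streptavidin fluorescence for binding of the Sf9 membrane reagent. Each polyreactivity label is drawn from the gate of origin.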

## QVQLVESGGGLVQAGGSLRLSCAASGFTFSPNAMGWSTQAPGQEREVVAAITSGGNTYADSVKGRFTISRDNAKNSVYFQMNSLKPDDNAVYYCAKGEGYWYIARYLPVGYGYWGQGTQVTVSS
  polyreactivity (PSR sort gate): low polyreactivity

## QVQLVESGGGLVQAGGSLRLSCAASGFTFSPYTMGWYRQAPGKERELVATIRYDGTSTYYADSVKGRFTISRDYAKNTVYLQMNSLKPEDTAVYFCAADIWRVYSTFYYWGQGTQVTVSS
  polyreactivity (PSR sort gate): low polyreactivity

## QVQLVESGGGLVQAGGSLRLSCAASGFTFSRNAMGWYRQAPGKERELVAAIDSGGSTDYADSVKGRFTISRDNAKNTVYLQMNSLKPEDTAVYYCAIASSATRYVQLRQDYDYWGQGTQVTVSS
  polyreactivity (PSR sort gate): low polyreactivity

## QVQLVESGGGLVQAGGSLRLSCAASGFTFSRNAMGWYRQAPGKERELVAAISGRTGTTYYADSVKGRFTISRDNAKNTVYLQMNSLKTVDTAVYYCAKSSGRYRSDYWGQGTQVTVSS
  polyreactivity (PSR sort gate): high polyreactivity

## QVQLVESGGGLVQAGGSLRLSCAASGFTFSRNAMGWYRQAPGKERELVAAITSRGGSTYYADSVKGRFTISRDNAKNTVYLQMNSLKPEDTAVYYCNAKLISGIYTADSRSRIYDYWGQGTQVTVSS
  polyreactivity (PSR sort gate): high polyreactivity

## QVQLVESGGGLVQAGGSLRLSCAASGFTFSRNVLGWYRQAPGKERELIAAITTSYGGTYYADSVKGRFTISRDNAKNTVYLQMNSLKPEDTAVYYCATRYYPNTSYEYYYWGQGTQLTVSS
  polyreactivity (PSR sort gate): low polyreactivity

## QVQLVESGGGLVQAGGSLRLSCAASGFTFSRYAMGWYRQAPGKERELVAAITASGGTTYYADSVKGRFTISRDNAKNTVYLQMNSLKAEDTAVYYCNALYYYLYGYDYWGQGTQVTVSS
  polyreactivity (PSR sort gate): high polyreactivity

## QVQLVESGGGLVQAGGSLRLSCAASGFTFSSNAMGWYRQAPGKQRELVAAISKGGGSTYYADSVKGRFTISRDNAKNTGYLQMNSLKPEDTAVYYCAKEYDTYAYTYPYNYWGQGTQVTVSS
  polyreactivity (PSR sort gate): high polyreactivity

## QVQLVESGGGLVQAGGSLRLSCAASGFTFSSNGMGWYRQAPGKERELVAAITRRGGSTYYADSVKGRFTISRDNAKNTVYLQMNSLKPEDTAVYYCAARRSGTYYGTYKSNGRNYWGQGTQVTVSS
  polyreactivity (PSR sort gate): high polyreactivity

## QVQLVESGGGLVQAGGSLRLSCAASGFTFSSYAMGWYRQAPGKERELVAAISTRGGSTYYADSVKGRFTISRDNAKNTVYLQMNSLKPEETAVYYCAARYGTSYKVRWTYYAFDYWGQGTQVTVSS
  polyreactivity (PSR sort gate): low polyreactivity

## QVQLVESGGGLVQAGGSLRLSCAASGFTFSSYAMGWYRQAPGKERELVAAITQSGGRTYYADSVKGRFTISRDNAKNTVYLQMNSLKPEDTADYYCAADVTLWYDYWGQGTQVTVSS
  polyreactivity (PSR sort gate): low polyreactivity

## QVQLVESGGGLVQAGGSLRLSCAASGFTFSSYYMGWYRQAPGKERELVAAITSSGDDTYYADSVKGRFTISRDNAKNTVYLQMNSLKPEDTAVYYCAAEYTEGYTHDYGGQGTQVTVSS
  polyreactivity (PSR sort gate): low polyreactivity

## QVQLVESGGGLVQAGGSLRLSCAASGFTFSTYAMGWYRQAPGKERELVAAISRSGGSTYYADSVKGRFTISRDNAKNTVYLQMNSLKPEDTAVYYCNAEGPSYYYIIYDYWGQGTQVTGSS
  polyreactivity (PSR sort gate): high polyreactivity

## QVQLVESGGGLVQAGGSLRLSCAASGFTFSTYTMGWYRPAPGKVRELVAAITWTGGRKYYADSVKGRFTISRDNAKNTVFLQMNSLKPEDTAVYYCNRAGYTGAEVYGYDYWGQGTQVTVSS
  polyreactivity (PSR sort gate): high polyreactivity

## QVQLVESGGGLVQAGGSLRLSCAASGFTFSVYVIGWYRQAPGKERELVAAISSGGDTTYADSVKGRFTISRDNAKNTVYLQMNSLKPEDTAVYYCADYRVILYYLYDYWGQGTQVTVSS
  polyreactivity (PSR sort gate): low polyreactivity

## QVQLVESGGGLVQAGGSLRLSCAASGFTFSWYAMGWYRQAPGKERELVAAISLSGDRTYYADSVKGRFTISRDNANNTVYLQMNSLKPEDTAVYYCVFAFEYWGQGTQVTVSS
  polyreactivity (PSR sort gate): low polyreactivity

## QVQLVESGGGLVQAGGSLRLSCAASGFTFSWYAMGWYRQAPGKERELVAVITGAGITDYADSVKGRFTISRDNAKNTVYLQMNSLKPEDTAVYYCNAKSDRGVSGSGSGAYDYWGQGTQVTVSS
  polyreactivity (PSR sort gate): low polyreactivity
